Reference: paper doi:10.1101/2020.10.14.340034

Target: nsp16 (2'-O-methyltransferase);nsp10 (SARS-CoV-2;SARS-CoV-2, UniProt P0DTD1;P0DTD1 6799-7096;4254-4392, |)
Assay: competition

ACCCCC (ssRNA, 5' N7-methylguanosine cap (m7Gppp, cap-0); cap G not in strand) [Biotin-RNA N7-meGpppACCCCC-Biotin]
apparent K (half saturation): 4.3 µM
